Assay results taken from paper PMC7214467 (Nature Communications, 2020).

Experiments:
[1] = target: HLA-A2/NY-ESO-1 peptide complex on tumor cells (Homo sapiens, HLA-A2 (A*02:01 assumed), …); test: cell-based or functional assay
CD3 on Jurkat cells = target: T1, CD3 on Jurkat cells (Homo sapiens, endogenous on Jurkat …, UniProt P07766); test: flow cytometry on cells; Jurkat cells; titrated from 30 μg/mL in 3-fold dilutions, on ice; detected with PE goat anti-human lambda; settings: one partner purified
T1 construct: CD3 of the T cell receptor complex on Jurkat cells; On cells CD3ε stands with the other CD3 chains and the TCR; also called CD3+ Jurkat cells; source: endogenous, on Jurkat cells (ATCC TIB-152)
T1 sequence (P07766 23-207): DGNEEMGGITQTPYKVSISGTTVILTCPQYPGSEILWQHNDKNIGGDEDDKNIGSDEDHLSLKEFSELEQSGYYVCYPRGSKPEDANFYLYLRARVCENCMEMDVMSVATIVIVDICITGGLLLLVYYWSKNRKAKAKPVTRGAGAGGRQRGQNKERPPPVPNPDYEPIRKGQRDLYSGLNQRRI

Binder | T cell redirected lysis of peptide-pulsed Saos-2 cells by primary T cells, 48 h, EC50 [1] | binding result (CD3 on Jurkat cells) | T cell redirected lysis of peptide-pulsed 624.38 cells by primary T cells, 48 h, EC50 [1]
TCR/CD3 IgG BsAb with the 1G4_122 NY-ESO-1 TCR (stabilized Cα/Cβ subunit) and the chimeric SP-34 anti-CD3 arm (bispecific antibody, V domains shown, soluble 1G4_122 TCR α chain; Cα with the stabilizing mutations as in m1; soluble 1G4_122 TCR β chain; Cβ with the stabilizing mutations as in m2; detected with goat anti-human lambda; Two heavy chains joined by the 7.8.60 Fc heterodimer design; also called IgG-like BsAb; TCR/CD3 bifunctional; source: CHO K1SV KO, transient, secreted, purified (mAbSure resin, preparative size exclusion); copies: + …) VH: EVQLVESGGGLVQPKGSLKLSCAASGFTFNTYAMNWVRQAPGKGLEWVARIRSKYNNYATYYADSVKDRFTISRDDSQSLLYLQMNNLKTEDTAMYYCVRHGNFGNSYVSWFAYWGQGTLVTVSA VL: QAVVTQESALTTSPGETVTLTCRSSTGAVTTSNYANWVQEKPDHLFTGLIGGTNKRAPGVPARFSGSLIGDKAALTITGAQTEDEAIYFCALWYSNLWVFGGGTKLTVL | ~1 nM | binds | 
TCR/CD3 Tandem BsAb with the stabilized 1G4_122 NY-ESO-1 TCR and the chimeric SP-34 anti-CD3 Fab (bispecific antibody, V domains shown, soluble 1G4_122 TCR α chain; Cα with the stabilizing mutations as in m1; soluble 1G4_122 TCR β chain; Cβ with the stabilizing mutations as in m2; detected with goat anti-human lambda; also called tandem Fab BsAb; tandem Fab; copies: + + +) VH: EVQLVESGGGLVQPKGSLKLSCAASGFTFNTYAMNWVRQAPGKGLEWVARIRSKYNNYATYYADSVKDRFTISRDDSQSLLYLQMNNLKTEDTAMYYCVRHGNFGNSYVSWFAYWGQGTLVTVSA VL: QAVVTQESALTTSPGETVTLTCRSSTGAVTTSNYANWVQEKPDHLFTGLIGGTNKRAPGVPARFSGSLIGDKAALTITGAQTEDEAIYFCALWYSNLWVFGGGTKLTVL | ~0.03 nM | binds | ~0.1 nM
